# Experimental data from patent US20180339041A1 (Kyowa Kirin, published 2018).
# Where a chain is given by its changes, count along the chain named. In names and notes the source's numbering stands. Several values for one entry are separate records, joined by “and”; a condition that tells them apart may be missing. Equal values may be shown once.
# T1: C-terminally FLAG-tagged human Gas6 recombinant protein (hGas6-F) (human, UniProt Q14393 31-678, gamma-carboxylated glutamic acid residues in the Gla domain (producer cells co-express rat VKOR and human GGCX); positions not given)
# T1 construct: also called human Gas6-F; human Gas6 protein
# T1 sequence: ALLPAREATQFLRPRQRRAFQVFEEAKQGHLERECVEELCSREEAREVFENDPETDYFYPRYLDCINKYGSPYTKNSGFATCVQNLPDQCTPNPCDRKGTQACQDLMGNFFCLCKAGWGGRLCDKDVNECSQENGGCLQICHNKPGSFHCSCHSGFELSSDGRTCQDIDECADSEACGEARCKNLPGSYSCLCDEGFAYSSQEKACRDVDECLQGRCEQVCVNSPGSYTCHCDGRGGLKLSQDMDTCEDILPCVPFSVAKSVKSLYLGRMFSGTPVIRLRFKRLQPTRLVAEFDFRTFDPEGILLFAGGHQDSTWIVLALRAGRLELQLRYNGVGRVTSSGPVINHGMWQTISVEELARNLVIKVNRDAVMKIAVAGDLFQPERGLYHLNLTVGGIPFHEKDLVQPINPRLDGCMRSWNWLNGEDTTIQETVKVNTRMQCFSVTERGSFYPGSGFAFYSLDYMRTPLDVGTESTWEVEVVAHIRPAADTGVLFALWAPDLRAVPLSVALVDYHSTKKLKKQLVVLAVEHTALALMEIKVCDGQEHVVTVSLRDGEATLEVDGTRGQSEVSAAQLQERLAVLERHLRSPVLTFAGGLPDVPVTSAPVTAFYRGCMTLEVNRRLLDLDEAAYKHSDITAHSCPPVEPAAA
# B1: hzKM5321 LV6HV2b antibody (antibody, V domains shown)
# VH: QVHLVQSGPELKKPGASVKISCKASGYTFTNYGMNWVRQAPGQGLEWMGWINTNTGEPTYTEEFKGRFVFSLDTSVTTSYLQISTLKAEDTATYFCARDEGWFVYWGQGTLVTVSS
# VL: ETTLTQSPSSLSVSTGDRVTITCITSTDIDDDMNWYQQKPGKPPKLLISEGNTLRPGVPSRFSSSGSGTDFTLTISSTQPEDFADYYCLQTDSVPLTFGQGTKVEIK
# notes: Humanized; variant human IgG4 constant region (EU S228P, L235E, R409K), human kappa; also called B-24; LV6HV2b
# B2: hzKM5321 LV7bHV0 antibody (antibody, V domains shown)
# VH: B1 VH with P9S, T93V
# VL: B1 VL with L4V, T15V, P43A, L73F, V104L
# notes: Humanized; variant human IgG4 constant region (EU S228P, L235E, R409K), human kappa; also called B-10; LV7bHV0
# B3: KM5321 chimeric antibody (antibody, V domains shown)
# VH: QIQLVQSGPELKKPGETVKISCRASGYTFTNYGMNWVKQAPGKGLKWMGWINTNTGEPTYTEEFKGRFAFSLETSATTAYLQINDLKNEDTATYFCARDEGWFVYWGQGTLITVSA
# VL: ETTVTQSPASLSVATGEKVTIRCITSTDIDDDMNWYQQKPGEPPKLLISEGNTLRPGVPSRFSSSGYGTDFVFTIENTLSEDVADYYCLQTDSVPLTFGAGTKLELK
# notes: also called KM5321 chimera; B-01
# B4: hzKM5320 LV5HV2 antibody (antibody, V domains shown)
# VH: QVQLVQSGSELKKPGASVKVSCKASGYTFTNYGMNWVRQAPGQGLEWMGWINTETGEPTYSDDFKGRFVFSLDTSVSTAYLQISSLKAEDTATYFCAREDGYYGTLDYWGQGTTVTVSS
# VL: DIVMTQSPDSLAVSLGERVTINCKASQSVSNDVAWYQQKPGQSPKVLIYYASNRYTGVPDRFSGSGSGTDFTFTISSVQAEDVAVYFCQQDYSSPWTFGQGTKLEIK
# notes: Humanized; variant human IgG4 constant region (EU S228P, L235E, R409K), human kappa; also called kzKM5320 LV5HV2; A-20
# B5: hzKM5320 LV1bHV0 antibody (antibody, V domains shown)
# VH: B4 VH with T93V, F95Y
# VL: B4 VL with I2V, V46L, F73L, F87Y
# notes: Humanized; variant human IgG4 constant region (EU S228P, L235E, R409K), human kappa; also called A-04
# B6: hzKM5320 LV0HV0 antibody (antibody, V domains shown)
# VH: B4 VH with T93V, F95Y
# VL: B4 VL with I2V, V46L, F73L, V78L, F87Y
# notes: Humanized; variant human IgG4 constant region (EU S228P, L235E, R409K), human kappa; also called A-02
# B7: hzKM5321 LV6HV0 antibody (antibody, V domains shown)
# VH: B1 VH with P9S, T93V
# VL: B1 VL
# notes: Humanized; variant human IgG4 constant region (EU S228P, L235E, R409K), human kappa; also called B-08; LV6HV0
# B8: hzKM5321 LV7bHV7 antibody (antibody, V domains shown)
# VH: B1 VH with V2I, R38K, E46K, S79A, V112I
# VL: B1 VL with L4V, T15V, P43A, L73F, V104L
# notes: Humanized; variant human IgG4 constant region (EU S228P, L235E, R409K), human kappa; also called B-20; LV7bHV7
# B9: hzKM5321 LV6HV2a antibody (antibody, V domains shown)
# VH: B1 VH with P9S, R38K, E46K, T93V
# VL: B1 VL
# notes: Humanized; variant human IgG4 constant region (EU S228P, L235E, R409K), human kappa; also called B-23; LV6HV2a
# B10: hzKM5321 LV7aHV7 antibody (antibody, V domains shown)
# VH: B1 VH with V2I, R38K, E46K, S79A, V112I
# VL: B1 VL with L73F
# notes: Humanized; variant human IgG4 constant region (EU S228P, L235E, R409K), human kappa; also called B-19; LV7aHV7
# B11: hzKM5321 LV6HV7 antibody (antibody, V domains shown)
# VH: B1 VH with V2I, R38K, E46K, S79A, V112I
# VL: B1 VL
# notes: Humanized; variant human IgG4 constant region (EU S228P, L235E, R409K), human kappa; also called B-18; LV6HV7
# B12: hzKM5321 LV9HV7 antibody (antibody, V domains shown)
# VH: B1 VH with V2I, R38K, E46K, S79A, V112I
# VL: B1 VL with L4V, L73F, V104L
# notes: Humanized; variant human IgG4 constant region (EU S228P, L235E, R409K), human kappa; also called B-21; LV9HV7
# B13: hzKM5321 LV6HV4a antibody (antibody, V domains shown)
# VH: B1 VH with V2I, S79A, T93V, V112I
# VL: B1 VL
# notes: Humanized; variant human IgG4 constant region (EU S228P, L235E, R409K), human kappa; also called B-27; LV6HV4a
# B14: hzKM5321 LV6HV5 antibody (antibody, V domains shown)
# VH: B1 VH with V2I, P9S, R38K, E46K, S79A, T93V, V112I
# VL: B1 VL
# notes: Humanized; variant human IgG4 constant region (EU S228P, L235E, R409K), human kappa; also called B-29; LV6HV5
# B15: hzKM5321 LV7aHV0 antibody (antibody, V domains shown)
# VH: B1 VH with P9S, T93V
# VL: B1 VL with L73F
# notes: Humanized; variant human IgG4 constant region (EU S228P, L235E, R409K), human kappa; also called B-09; LV7aHV0
# B16: hzKM5321 LV6HV4b antibody (antibody, V domains shown)
# VH: B1 VH with R38K, E46K
# VL: B1 VL
# notes: Humanized; variant human IgG4 constant region (EU S228P, L235E, R409K), human kappa; also called B-28; LV6HV4b
# B17: hzKM5321 LV6HV3b antibody (antibody, V domains shown)
# VH: B1 VH with P9S, R38K, E46K
# VL: B1 VL
# notes: Humanized; variant human IgG4 constant region (EU S228P, L235E, R409K), human kappa; also called B-26; LV6HV3b
# B18: hzKM5321 LV6HV3a antibody (antibody, V domains shown)
# VH: B1 VH with E46K
# VL: B1 VL
# notes: Humanized; variant human IgG4 constant region (EU S228P, L235E, R409K), human kappa; also called B-25; LV6HV3a
# B19: hzKM5321 LV9HV0 antibody (antibody, V domains shown)
# VH: B1 VH with P9S, T93V
# VL: B1 VL with L4V, L73F, V104L
# notes: Humanized; variant human IgG4 constant region (EU S228P, L235E, R409K), human kappa; also called B-11; LV9HV0
# Target: T1, C-terminally FLAG-tagged human Gas6 …
# Test: ELISA, hGas6-F captured by anti-FLAG, anti-human IgG-HRP
# Experimental: First, 2 μg/mL anti-FLAG antibody [Monoclonal ANTI-FLAG M2 antibody produced in mouse (manufactured by Sigma-Aldrich Co. LLC) diluted with PBS (manufactured by Nacalai Tesque, Inc.)] was dispensed at 50 μL/well to a 96-well plate for ELISA (manufactured by Nalge Nunc International), and the plate was left standing overnight at 4° C. for adsorption. After removal of the immobilization solution, 1% BSA-PBS (manufactured by Nacalai Tesque, Inc.) was added thereto at 300 μL/well, and the plate was left standing at room temperature for 1 hour for blocking and washed five times with Tween 20-PBS (manufactured by Wako Pure Chemical Industries Ltd.).
# In order to reduce the backgrounds of measurement values, the diluted secondary antibody solution was mixed with 50 μg/mL of an anti-DNP mouse IgG1 antibody and incubated at room temperature for 1 hour for use.
row,EC50 [ng/mL],Binder
1,5.95,B1
2,6.69,B2
3,6.78,B3
4,12.2,B4
5,19.1,B5

# Target: T1, C-terminally FLAG-tagged human Gas6 …
# Test: SPR Biacore T100, captured antibody, Gas6 analyte, first test
# Experimental: The measurement instrument used was Biacore® T100 (manufactured by GE Healthcare Japan Corp.).
# (§1) An anti-human IgG antibody was immobilized on a CM5 sensor chip (manufactured by GE Healthcare Japan Corp.) using Human Antibody Capture Kit (manufactured by GE Healthcare Japan Corp.) according to the attached manual. Each test antibody adjusted to 1 μg/mL was added for 10 seconds at a flow rate of 10 μL/min to flow cells. […] The measurement was performed by the […] method. The obtained sensorgram was analyzed using Bia Evaluation Software (manufactured by GE Healthcare Japan Corp.), and the kinetic constant of each antibody was calculated.
fold increase of KD against the KM5320 chimeric antibody [fold],fold increase of kd against the KM5320 chimeric antibody [fold],Binder
≥ 10,~6,B6

# Target: T1, C-terminally FLAG-tagged human Gas6 …
# Test: SPR Biacore T100, captured antibody, Gas6 analyte, retest
# Experimental: as §1
# In this retest, unlike the test mentioned above, the number of antibodies to be measured and variations in the concentration of the analyte were decreased, and the assay was conducted for a short time (within several hours), instead of sufficiently leaving standing the analyte added to the vial. […] This minimizes the adsorption of the analyte to the vial and permits more accurate calculation of ka and KD values than that in the test mentioned above.
Kd [nM],koff [s⁻¹],kon [M⁻¹ s⁻¹],Binder
0.484,0.000154,319000,B1
0.403,0.000142,353000,B2
0.202,7.66e-05,380000,B3
1.29,0.000197,152000,B4
16.5,0.00149,90000,B5

# Target: T1, C-terminally FLAG-tagged human Gas6 …
# Test: SPR Biacore T100, captured antibody, Gas6 analyte, first test
# Remark: another data set of the same source
# Experimental: as §1
Kd [nM],koff,kon [M⁻¹ s⁻¹],Binder
< 1.19,0.000159 s⁻¹ and 0.000238 s⁻¹,> 134000,B7
< 3.07,0.000329 s⁻¹,> 107000,B8
< 2.33,0.000239 s⁻¹,> 103000,B1
< 2.07,0.000212 s⁻¹,> 102000,B9
< 2.91,0.000299 s⁻¹,> 103000,B10
< 2.59,0.000281 s⁻¹ and 0.000278 s⁻¹,> 107000,B11
< 3.33,0.000352 s⁻¹,> 106000,B12
< 3.2,0.000341 s⁻¹,> 106000,B13
< 2.61,0.000277 s⁻¹,> 106000,B14
< 1.41,0.000188 s⁻¹,> 133000,B15
< 1.92,0.000204 s⁻¹,> 106000,B16
< 1.88,0.000242 s⁻¹,> 129000,B2
< 1.88,0.0002 s⁻¹,> 106000,B17
< 2.15,0.000226 s⁻¹,> 105000,B18
< 1.96,0.000247 s⁻¹,> 126000,B19
< 1.16,0.000141 s⁻¹ and 0.000137 s⁻¹,> 121000,B3
< 13.8,0.000924 s⁻¹,> 66800,B6
< 2.13,0.000158 s⁻¹,> 74300,B4
< 16,0.00115 s⁻¹,> 72000,B5

# Target: T1, C-terminally FLAG-tagged human Gas6 …
# Test: competitive ELISA, inhibition of hGas6-F binding to immobilised hAxl-hFc
row,IC50 [µg/mL],Binder
1,0.0126,B1
2,0.0118,B2
3,0.0123,B3
4,0.0336,B4
5,0.742,B5
